Source: doi:10.1101/521369 (bioRxiv, 2019)

Biological target: T1, Alexa488-PLCβ1 (purified PLCβ1a) (UniProt P10687 1-1216, Alexa488 on the N-terminus)
T1 sequence: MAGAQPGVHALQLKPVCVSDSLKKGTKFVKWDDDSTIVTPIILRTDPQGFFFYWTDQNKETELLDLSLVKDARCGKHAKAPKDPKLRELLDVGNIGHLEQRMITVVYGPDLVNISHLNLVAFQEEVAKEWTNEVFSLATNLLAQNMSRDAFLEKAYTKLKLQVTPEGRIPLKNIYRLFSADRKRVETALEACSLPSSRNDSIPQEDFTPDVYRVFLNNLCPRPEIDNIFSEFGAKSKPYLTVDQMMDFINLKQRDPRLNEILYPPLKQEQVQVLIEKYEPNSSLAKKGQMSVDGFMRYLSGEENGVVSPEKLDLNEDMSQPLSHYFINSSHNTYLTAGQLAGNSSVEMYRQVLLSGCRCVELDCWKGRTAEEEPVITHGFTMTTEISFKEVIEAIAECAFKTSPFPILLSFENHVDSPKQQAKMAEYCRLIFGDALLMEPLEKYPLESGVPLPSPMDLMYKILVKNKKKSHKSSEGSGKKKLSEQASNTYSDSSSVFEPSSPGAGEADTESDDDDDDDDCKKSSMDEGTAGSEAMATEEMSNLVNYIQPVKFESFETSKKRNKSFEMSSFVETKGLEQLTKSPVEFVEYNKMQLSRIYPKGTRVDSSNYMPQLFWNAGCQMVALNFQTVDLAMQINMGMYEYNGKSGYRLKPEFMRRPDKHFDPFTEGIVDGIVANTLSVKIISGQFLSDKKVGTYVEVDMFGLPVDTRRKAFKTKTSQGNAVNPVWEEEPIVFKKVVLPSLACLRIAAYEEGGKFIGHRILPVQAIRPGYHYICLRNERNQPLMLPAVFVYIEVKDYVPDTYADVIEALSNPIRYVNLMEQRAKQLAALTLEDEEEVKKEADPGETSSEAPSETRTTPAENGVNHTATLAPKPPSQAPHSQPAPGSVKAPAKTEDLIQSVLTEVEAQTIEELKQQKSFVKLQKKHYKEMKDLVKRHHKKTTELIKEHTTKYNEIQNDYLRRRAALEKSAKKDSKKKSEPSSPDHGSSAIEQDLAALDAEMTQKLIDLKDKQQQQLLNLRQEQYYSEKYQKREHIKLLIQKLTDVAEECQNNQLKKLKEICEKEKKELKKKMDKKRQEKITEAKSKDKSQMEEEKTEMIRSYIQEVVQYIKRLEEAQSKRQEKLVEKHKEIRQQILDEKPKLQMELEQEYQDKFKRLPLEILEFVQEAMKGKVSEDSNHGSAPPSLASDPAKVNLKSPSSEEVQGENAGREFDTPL
Test: other fluorescence titration

Kd: 27 ± 5 nM
B1: Alexa594-eIF5A (purified) (natural protein)
chain: not shown
modifications: Alexa594 on the N-terminus
